This passage reports Kd results from PMC6929975, “A supramolecular protein chaperone for vaccine delivery” (Theranostics, 2020).

By Kd is commonly meant the equilibrium constant for the complex coming apart. Higher therefore signals a looser complex.

Starred links: 1 amine or outer side, 2 acyl side, 3 side chain; linkers in the order of their positions; H or OH if unused. Non-standard residues stand in square brackets, D forms with d. Groups on a side chain read outwards from the residue. *: point of attachment. Fbp = flurbiprofen, CC(C(=O)*)c1ccc(-c2ccccc2)c(F)c1; γGlu = O=C(O)[C@H](CCC(=O)[*:2])N[*:1]

The target of test [1] is Hepatitis B surface antigen (hepatitis B virus, UniProt P03138 1-389, fluorescent dye NT-647 (cysteine-reactive Monolith NT Protein Labelling Kit)). The test can be described thus: MST; proteins labelled with NT-647 held at constant concentration; Comp. 1 or 2 varied from 0.25 μM to 10 mM; PBS with 0.05% Tween-20, pH 7.4; Monolith NT.115, standard glass capillaries. The conditions noted are these: both partners purified.

Another test concerns the target T1, ovalbumin (UniProt P01012 1-386, fluorescent dye NT-647 (cysteine-reactive Monolith NT Protein Labelling Kit)).
T1 construct: source: bought: InvivoGen (endotoxin free)
T1 sequence (looked up): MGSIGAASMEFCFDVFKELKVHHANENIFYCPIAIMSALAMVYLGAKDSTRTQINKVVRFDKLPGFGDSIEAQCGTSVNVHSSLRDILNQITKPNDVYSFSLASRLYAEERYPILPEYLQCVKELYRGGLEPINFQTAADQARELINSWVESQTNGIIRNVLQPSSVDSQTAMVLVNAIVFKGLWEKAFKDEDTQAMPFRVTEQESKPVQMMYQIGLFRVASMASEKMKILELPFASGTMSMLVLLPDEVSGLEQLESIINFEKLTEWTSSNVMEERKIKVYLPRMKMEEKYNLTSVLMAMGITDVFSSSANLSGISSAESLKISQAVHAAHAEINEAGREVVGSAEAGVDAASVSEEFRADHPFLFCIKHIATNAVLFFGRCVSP
The description is as above. The conditions noted are these: both partners purified.

B1: Fbp-G^DF^DF^DY^DK(γE)2-NH2 (peptide)
peptide: Fbp-G[dF][dF][dY][dK]([γGlu-γGlu])-NH2
SMILES: CC(C(=O)NCC(=O)N[C@H](Cc1ccccc1)C(=O)N[C@H](Cc1ccccc1)C(=O)N[C@H](Cc1ccc(O)cc1)C(=O)N[C@H](CCCCNC(=O)CC[C@H](NC(=O)CC[C@H](N)C(=O)O)C(=O)O)C(N)=O)c1ccc(-c2ccccc2)c(F)c1
notes: also called Comp; supramolecular protein chaperone; source: synthetic peptide (Fmoc SPPS on Rink resin, purified by HPLC)
As to B1, the Kd in test [1] amounted to 68 µM; with ovalbumin, 83.3 µM.
